In patent US20230236179A1 one finds average AEB and average AMB data, which are given here for 2 substances.

Test [1] deals with human interleukin-1 beta (IL-1β) protein standard (R&D Systems 201-LB-005) (human) (UniProt P01584). As to the kind of experiment: conventional Simoa sandwich (capture beads + detector m2), 300 pM SβG/15 min; IL-1B at 0.391 fM.
For test [2] the target is unchanged. As to the kind of experiment: dSimoa sandwich (capture beads + detector m2), 300 pM streptavidin-DNA/15 min; IL-1B at 0.5 fM.
Test [3] shares this target. As to the kind of experiment: conventional Simoa sandwich (capture beads + detector m2), 150 pM SβG/5 min; IL-1B at 0.391 fM.
Test [4] has the same target. Description: conventional Simoa sandwich (capture beads + detector m2), 300 pM SβG/15 min; IL-1B at 100 fM.
The target is the same in test [5]. As to the kind of experiment: conventional Simoa sandwich (capture beads + detector m2), 300 pM SβG/15 min; IL-1B at 6.25 fM.
Test [6] shares this target. Description: conventional Simoa sandwich (capture beads + detector m2), 300 pM SβG/15 min; IL-1B at 25 fM.
For test [7] the target is unchanged. As to the kind of experiment: dSimoa sandwich (capture beads + detector m2), 300 pM streptavidin-DNA/15 min; IL-1B at 0.05 fM.
Test [8] shares this target. Description: conventional Simoa sandwich (capture beads + detector m2), 300 pM SβG/15 min; IL-1B at 0.024 fM.
For test [9] the target is unchanged. As to the kind of experiment: conventional Simoa sandwich (capture beads + detector m2), 150 pM SβG/5 min; IL-1B at 1.563 fM.
For test [10] the target is unchanged. As to the kind of experiment: dSimoa sandwich (capture beads + detector m2), 300 pM streptavidin-DNA/15 min; IL-1B at 10 fM.
For test [11] the target is unchanged. As to the kind of experiment: conventional Simoa sandwich (capture beads + detector m2), 150 pM SβG/5 min; IL-1B at 25 fM.
Test [12] shares this target. As to the kind of experiment: dSimoa sandwich (capture beads + detector m2), 300 pM streptavidin-DNA/15 min; IL-1B at 0.1 fM.
Test [13] has the same target. As to the kind of experiment: conventional Simoa sandwich (capture beads + detector m2), 150 pM SβG/5 min; IL-1B at 100 fM.
Test [14] shares this target. Description: conventional Simoa sandwich (capture beads + detector m2), 300 pM SβG/15 min; IL-1B at 0.098 fM.
For test [15] the target is unchanged. As to the kind of experiment: dSimoa sandwich (capture beads + detector m2), 300 pM streptavidin-DNA/15 min; IL-1B at 0.01 fM.
The target is the same in test [16]. Description: conventional Simoa sandwich (capture beads + detector m2), 300 pM SβG/15 min; IL-1B at 1.563 fM.
For test [17] the target is unchanged. As to the kind of experiment: conventional Simoa sandwich (capture beads + detector m2), 150 pM SβG/5 min; IL-1B at 0.098 fM.
Test [18] has the same target. As to the kind of experiment: dSimoa sandwich (capture beads + detector m2), 300 pM streptavidin-DNA/15 min; IL-1B at 100 fM.
Test [19] shares this target. As to the kind of experiment: dSimoa sandwich (capture beads + detector m2), 300 pM streptavidin-DNA/15 min; IL-1B at 1 fM.
Test [20] addresses IL-6 protein standard (R&D Systems 206-IL-010) (UniProt P05231). Description: CARD-dELISA sandwich (capture beads + detection antibody m11, streptavidin-poly-HRP, tyramide); IL-6 at 100 fM.
For test [21] the target is unchanged. Description: conventional Simoa sandwich on HD-1 (capture beads + detection antibody m11, SβG); IL-6 at 0.5 fM.
Test [22] shares this target. As to the kind of experiment: CARD-dELISA sandwich (capture beads + detection antibody m11, streptavidin-poly-HRP, tyramide); IL-6 at 50 fM.
Test [23] shares this target. As to the kind of experiment: CARD-dELISA sandwich (capture beads + detection antibody m11, streptavidin-poly-HRP, tyramide); IL-6 at 0.5 fM.
Test [24] has the same target. Description: conventional Simoa sandwich on HD-1 (capture beads + detection antibody m11, SβG); IL-6 at 100 fM.
Test [25] has the same target. As to the kind of experiment: CARD-dELISA sandwich (capture beads + detection antibody m11, streptavidin-poly-HRP, tyramide); IL-6 at 1 fM.
Test [26] shares this target. Description: CARD-dELISA sandwich (capture beads + detection antibody m11, streptavidin-poly-HRP, tyramide); IL-6 at 10 fM.
Test [27] has the same target. As to the kind of experiment: conventional Simoa sandwich on HD-1 (capture beads + detection antibody m11, SβG); IL-6 at 0.1 fM.
The target is the same in test [28]. As to the kind of experiment: conventional Simoa sandwich on HD-1 (capture beads + detection antibody m11, SβG); IL-6 at 1 fM.
The target is the same in test [29]. As to the kind of experiment: conventional Simoa sandwich on HD-1 (capture beads + detection antibody m11, SβG); IL-6 at 50 fM.
The target is the same in test [30]. As to the kind of experiment: CARD-dELISA sandwich (capture beads + detection antibody m11, streptavidin-poly-HRP, tyramide); IL-6 at 0.1 fM.
Test [31] has the same target. As to the kind of experiment: conventional Simoa sandwich on HD-1 (capture beads + detection antibody m11, SβG); IL-6 at 10 fM.

UniProt P01584, sequence (P01584 117-269 limits assumed): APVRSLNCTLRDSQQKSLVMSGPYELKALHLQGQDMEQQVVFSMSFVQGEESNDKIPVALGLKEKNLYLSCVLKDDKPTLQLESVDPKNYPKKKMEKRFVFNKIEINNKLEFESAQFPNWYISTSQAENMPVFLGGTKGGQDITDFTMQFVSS
UniProt P05231, sequence (P05231 30-212 limits assumed): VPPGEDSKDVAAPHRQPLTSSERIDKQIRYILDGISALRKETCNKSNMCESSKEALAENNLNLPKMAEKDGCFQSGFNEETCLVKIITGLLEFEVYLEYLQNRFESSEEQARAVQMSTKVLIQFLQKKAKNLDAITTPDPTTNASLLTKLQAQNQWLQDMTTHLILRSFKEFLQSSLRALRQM

For “IL-1β capture antibody (Biolegend 508202)”, the average AEB in test [1] stood at 0.029 AEB; in [3], 0.0135 AEB; in test [4], 0.767 AEB; in test [5], 0.0714 AEB; in test [6] it was 0.221 AEB; in [8], 0.0428 AEB. The average AEB in test [9] amounted to 0.0222 AEB; in test [11], 0.199 AEB; in test [13] it was 0.721 AEB; in test [14], 0.0271 AEB; in [16], 0.0379 AEB; in test [17] it was 0.0108 AEB. In addition, the average AMB in test [2] amounted to 0.0114 AMB; in test [7] it was 0.0054 AMB; in test [10], 0.0898 AMB; in test [12] it was 0.0051 AMB; in test [15], 0.0044 AMB; in test [18] it was 0.822 AMB. The average AMB in test [19] amounted to 0.0133 AMB.
On to “IL-6 capture antibody (R&D Systems MAB206)”, for which the average AEB in [20] was 0.171 AEB; in test [21] it was 0.0098 AEB; in test [22], 0.0937 AEB; in test [23], 0.005 AEB; in test [24], 1.03 AEB; in test [25], 0.0058 AEB. Moreover, the average AEB came to 0.0151 AEB in test [26]; 0.005 AEB in test [27]; 0.0151 AEB in test [28]; 0.522 AEB in test [29]; 0.0031 AEB in test [30]; 0.111 AEB in [31].
